According to the supplement of paper PMC10567573:

B1: PDZK1 (parent)
chain: FQAKKIPIVSSLADPLDTPPDSKE
B2: ZNF511 (parent)
chain: YEHHYHTLHGNVCSFCKRAFPSGH

Variants of: B1
Assay: protein stability index of a GFP-peptide fusion (GPS, HEK-293T) (PSI 1-6); higher = more stable
Conditions: c terminus: a fixed tail appended
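Further: lentivirally expressed fusions sorted by FACS into six bins by GFP to DsRed ratio, PSI derived from sequencing read proportions per bin multiplied by bin number.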

Going from FQAKKIPIVSSLADPLDTPYDSKE [P20Y] to FQAKKIPIVSSLADPLDTPSDSKE [P20S], the protein stability index falls from 3.89 to 3.62.

Going from FQAKKIPIVSSLADPLDTPCDSKE [P20C] to FQAKKIPIVSSLADPLDTPEDSKE [P20E], the protein stability index rises from 3.94 to 4.21.

Compared with FQAKKIPIVSSLADPLDTPIDSKE [P20I], FQAKKIPIVSSLADPLDTPMDSKE [P20M] is higher in protein stability index: 3.61 for the first, 3.75 for the second.

First: FQAKKIPIVSSLADPLDTPFDSKE [P20F]
Second: FQAKKIPIVSSLADPLDTPWDSKE [P20W]
The protein stability index of the first is higher: 3.17 for the first, 2.62 for the second.

First: FQAKKIPIVSSLADPLDTPDDSKE [P20D]
Second: FQAKKIPIVSSLADPLDGPPDSKE [T18G]
The protein stability index of the first is higher: 4.28 for the first, 3.62 for the second.

First: FQAKKIPIVSSLADPLDFPPDSKE [T18F]
Second: FQAKKIPIVSSLADPLDWPPDSKE [T18W]
The protein stability index of the first is lower: 3.55 for the first, 3.86 for the second.

Going from FQAKKIPIVSSLADPLDSPPDSKE [T18S] to FQAKKIPIVSSLADPLDVPPDSKE [T18V], the protein stability index rises from 3.53 to 3.57.

Compared with FQAKKIPIVSSLADPLDKPPDSKE [T18K], FQAKKIPIVSSLADPLDEPPDSKE [T18E] is lower in protein stability index: 3.81 for the first, 3.75 for the second.

Going from FQAKKIPIVSSLADPLDCPPDSKE [T18C] to FQAKKIPIVSSLADPLDDPPDSKE [T18D], the protein stability index rises from 3.46 to 3.68.

Going from FQAKKIPIVSSLADPLDYPPDSKE [T18Y] to FQAKKIPIVSSLADPLDAPPDSKE [T18A], the protein stability index rises from 3.33 to 3.59.

First: FQAKKIPIVSSLADPLDIPPDSKE [T18I]
Second: FQAKKIPIVSSLADPLDNPPDSKE [T18N]
The protein stability index of the first is higher: 3.75 for the first, 3.48 for the second.

First: FQAKKIPIVSSLADPLDHPPDSKE [T18H]
Second: FQAKKIPIVSSLADPLDRPPDSKE [T18R]
The protein stability index of the first is lower: 3.29 for the first, 3.6 for the second.

First: FQAKKIPIVSSLADPLDMPPDSKE [T18M]
Second: FQAKKIPIVSSLADPLATPPDSKE [D17A]
The protein stability index of the first is lower: 3.73 for the first, 3.75 for the second.

First: FQAKKIPIVSSLADPLLTPPDSKE [D17L]
Second: FQAKKIPIVSVLADPLDTPPDSKE [S11V]
The protein stability index of the first is lower: 3.28 for the first, 3.38 for the second.

Compared with FQAKKIPIVSSLADPLDTPPDSRE [K23R], FQAKKIPIVSSLADPLDTPPDSVE [K23V] is higher in protein stability index: 3.23 for the first, 3.33 for the second.

Compared with FQAKKIPIVSSLADPLDTPPDSGE [K23G], FQAKKIPIVSSLADDLDTPPDSKE [P15D] is higher in protein stability index: 3.94 for the first, 4.1 for the second.

Going from FQAKKIPIVSSLADWLDTPPDSKE [P15W] to FQAKKIPIVSSLADNLDTPPDSKE [P15N], the protein stability index rises from 2.45 to 3.64.

First: FQAKKIPIVSSLADYLDTPPDSKE [P15Y]
Second: FQAKKIPIVSSLADHLDTPPDSKE [P15H]
The protein stability index of the first is lower: 3.32 for the first, 3.85 for the second.

First: FQAKKIPIVSSLADELDTPPDSKE [P15E]
Second: FQAKKIPIVSSLADFLDTPPDSKE [P15F]
The protein stability index of the first is higher: 3.48 for the first, 3.23 for the second.

Compared with FQAKKIPIVSSLADGLDTPPDSKE [P15G], FQAKKIPIVSSLADVLDTPPDSKE [P15V] is lower in protein stability index: 4.12 for the first, 3.43 for the second.

Going from FQAKKIPIVSSLADCLDTPPDSKE [P15C] to FQAKKIPIVSSLADKLDTPPDSKE [P15K], the protein stability index falls from 3.55 to 3.25.

Going from FQAKKIPIVSSLADTLDTPPDSKE [P15T] to FQAKKIPIVSSLADQLDTPPDSKE [P15Q], the protein stability index rises from 3.57 to 3.71.

Going from FQAKKIPIVSSLADRLDTPPDSKE [P15R] to FQAKKIPIVSSLADMLDTPPDSKE [P15M], the protein stability index falls from 3.73 to 3.11.

First: FQAKKIPIVSSLADALDTPPDSKE [P15A]
Second: FQAKKIPIVSSLADSLDTPPDSKE [P15S]
The protein stability index of the first is higher: 3.61 for the first, 3.58 for the second.

Compared with FQAKKIPIVSSLADLLDTPPDSKE [P15L], FQAKKIPIVSSLADILDTPPDSKE [P15I] is higher in protein stability index: 2.86 for the first, 3.53 for the second.

Going from FQAKKIPIVSSLADPMDTPPDSKE [L16M] to FQAKKIPIVSSLADPYDTPPDSKE [L16Y], the protein stability index falls from 3.79 to 3.47.

Going from FQAKKIPIVSSLADPGDTPPDSKE [L16G] to FQAKKIPIVSSLADPEDTPPDSKE [L16E], the protein stability index rises from 3.85 to 4.07.

Compared with FQAKKIPIVSSLADPFDTPPDSKE [L16F], FQAKKIPIVSSLADPNDTPPDSKE [L16N] is higher in protein stability index: 2.89 for the first, 4.27 for the second.

Compared with FQAKKIPIVSSLADPSDTPPDSKE [L16S], FQAKKIPIVSSLADPIDTPPDSKE [L16I] is lower in protein stability index: 4.13 for the first, 3.91 for the second.

First: FQAKKIPIVSSLADPCDTPPDSKE [L16C]
Second: FQAKKIPIVSSLADPRDTPPDSKE [L16R]
The protein stability index of the first is lower: 3.72 for the first, 3.77 for the second.

Going from FQAKKIPIVSSLADPKDTPPDSKE [L16K] to FQAKKIPIVSSLADPVDTPPDSKE [L16V], the protein stability index rises from 3.76 to 3.91.

Going from FQAKKIPIVSSLADPADTPPDSKE [L16A] to FQAKKIPIVSSLADPWDTPPDSKE [L16W], the protein stability index falls from 3.85 to 2.99.

Going from FQAKKIPIVSSLADPLDTTPDSKE [P19T] to FQAKKIPIVSSLADPLDTGPDSKE [P19G], the protein stability index rises from 3.85 to 3.91.

Going from FQAKKIPIVSSLADPLDTIPDSKE [P19I] to FQAKKIPIVSSLADPLDTEPDSKE [P19E], the protein stability index falls from 3.55 to 3.35.

First: FQAKKIPIVSSLADPLDTRPDSKE [P19R]
Second: FQAKKIPIVSSLADPLDTQPDSKE [P19Q]
The protein stability index of the first is lower: 3.56 for the first, 4.17 for the second.

First: FQAKKIPIVSSLADPLDTLPDSKE [P19L]
Second: FQAKKIPIVSSLADPLDTKPDSKE [P19K]
The protein stability index of the first is lower: 3.2 for the first, 3.66 for the second.

Going from FQAKKIPIVSSLADPLDTCPDSKE [P19C] to FQAKKIPIVSSLADPLDTSPDSKE [P19S], the protein stability index rises from 3.53 to 3.67.

First: FQAKKIPIVSSLADPLDTWPDSKE [P19W]
Second: FQAKKIPIVSSLADPLDTHPDSKE [P19H]
The protein stability index of the first is lower: 3.19 for the first, 4.01 for the second.

First: FQAKKIPIVSSLADPLDTAPDSKE [P19A]
Second: FQAKKIPIVSSLADPLDTDPDSKE [P19D]
The protein stability index of the first is lower: 3.43 for the first, 3.87 for the second.

Going from FQAKKIPIVSSLADPLDTMPDSKE [P19M] to FQAKKIPIVSSLADPLDTVPDSKE [P19V], the protein stability index falls from 3.72 to 3.54.

Going from FQAKKIPIVSSLADPLDTFPDSKE [P19F] to FQAKKIPIVSSLADPLDTYPDSKE [P19Y], the protein stability index rises from 2.9 to 3.81.

Compared with FQAKKIPIVSSLADPLDTNPDSKE [P19N], FQAKKIPIVSSLADPLDTPPGSKE [D21G] is lower in protein stability index: 3.88 for the first, 2.89 for the second.

Compared with FQAKKIPIVSSLADPLDTPPRSKE [D21R], FQAKKIPIVSSYADPLDTPPDSKE [L12Y] is higher in protein stability index: 2.76 for the first, 3.75 for the second.

First: FQAKKIPIVSSLAVPLDTPPDSKE [D14V]
Second: FQAKKIPIVSSLAKPLDTPPDSKE [D14K]
The protein stability index of the first is higher: 4.1 for the first, 3.65 for the second.

Compared with FQAKKIPIVSSLAMPLDTPPDSKE [D14M], FQAKKIPIVSSLAQPLDTPPDSKE [D14Q] is higher in protein stability index: 3.55 for the first, 3.86 for the second.

Compared with FQAKKIPIVSSLARPLDTPPDSKE [D14R], FQAKKIPIVSSLAEPLDTPPDSKE [D14E] is lower in protein stability index: 3.81 for the first, 3.65 for the second.

FQAKKIPIVSSLALPLDTPPDSKE [D14L] showed a protein stability index of 3.5.

Variants of: B2
Assay: as above
Conditions: c terminus: a fixed tail appended

Going from DEHHYHTLHGNVCSFCKRAFPSGH [Y1D] to AEHHYHTLHGNVCSFCKRAFPSGH [Y1A], the protein stability index falls from 3.67 to 3.02.

Work on CEHHYHTLHGNVCSFCKRAFPSGH [Y1C] yielded a protein stability index of 4.05.
